From patent US20190037818

What was measured:
Assay in all cases: cell_activity
Conditions in all cases: Cel-1 assay; activity of the TALEN pair
[1] = tested on: XTN TALEN 1 left monomer
[2] = tested on: XTN TALEN 1 right monomer
[3] = tested on: XTN TALEN 3 left monomer
[4] = tested on: XTN TALEN 3 right monomer
[5] = tested on: XTN TALEN 2 left monomer
[6] = tested on: XTN TALEN 2 right monomer

TATGCGGACCTTTATCTATGGCTGGAATTTCCTAAGTGCAGGGAGCCACA (double strand) [TALEN 1 target, left half-site]
activity [1]: 5%

TATGCGGACCTTTATCTATGGCTGGAATTTCCTAAGTGCAGGGAGCCACA (double strand) [TALEN 1 target, right half-site]
activity [2]: 5%

TCTGCCAACCTCACATACAGTATGTGGTTTAGTCATTGAGCAAATGCA (double strand) [TALEN 3 target, left half-site]
activity [3]: 3%

TCTGCCAACCTCACATACAGTATGTGGTTTAGTCATTGAGCAAATGCA (double strand) [TALEN 3 target, right half-site]
activity [4]: 3%

TGCAGTATGCGGACCTTTATCTATGGCTGGAATTTCCTAAGTGCAGGGA (double strand) [TALEN 2 target, left half-site]
activity [5]: 9%

TGCAGTATGCGGACCTTTATCTATGGCTGGAATTTCCTAAGTGCAGGGA (double strand) [TALEN 2 target, right half-site]
activity [6]: 9%
